How the values were obtained:
[1] = target: human CAPRIN-1 expressed on the surface of human cancer cells and in human cancer tissues (human) (UniProt Q14444); test: flow cytometry on human cancer cell lines Caki-1, Caki-2, A498, T24, SKOV3, QG56, PC3, Hela, HT1080, T98G, U87MG, MNK28, Lovo, Capan-2, MIAPaCa-2, Panc-1, BxPC-3; control mouse IgG1
[2] = target: human CAPRIN-1 expressed on the surface of human cancer cells and in human cancer tissues (human) (UniProt Q14444); test: flow cytometry, 2 µg antibody on 8 human breast cancer cell lines (ZR75-1, MCF7, T47D, SK-BR-3, MDA-MB-157, BT-20, MDA-MB-231V, MRK-nu-1); control mouse IgG1
[3] = target: T1, polypeptide consisting of the amino acid sequence of SEQ ID NO: 66 (human); test: trypsin or chymotrypsin digestion of antibody-CAPRIN-1 complex, protein G Sepharose, MS/MS of recovered peptides
T1 peptide: QQPQAASPSVPE
Description: The cancer cell surface-reactive mouse-chicken chimeric anti-human CAPRIN-1 monoclonal antibody #12 obtained in the paragraph (4) was used to identify a CAPRIN-1 epitope region recognized thereby. 100 μg of recombinant CAPRIN-1 proteins was dissolved in a protein inhibitor-free dissolving buffer and reacted with the mouse-chicken chimeric anti-human CAPRIN-1 monoclonal antibody #12. To this solution, a digestive enzyme trypsin or chymotrypsin was added, followed by digestion reaction at a suitable temperature. After the reaction, a protein G Sepharose carrier was added thereto, then reacted, and precipitated by centrifugation operation. After removal of the supernatant, the carrier was washed with a dissolving buffer and PBS and dissolved in 0.1% formic acid, and the supernatant was recovered. The recovered supernatant sample was applied to a reverse-phase column (HLB Extraction Cartridge (Waters-OASIS)) to obtain an antibody-free sample solution. The obtained sample was subjected to reverse-phase liquid chromatography (Chromatography Nanosytem (KYA Technologies Corp.)) to recover a solution containing only peptides. The solution was introduced to a tandem-type mass spectrometer Quadrupole-TOF Mass Spectrometer (Waters-MicroMass) and analyzed by MS/MS to detect the peptides contained in the sample. […]

B1: mouse-chicken chimeric anti-human CAPRIN-1 monoclonal antibody #12 (antibody, mouse IgG1, V domains shown)
VH: AVTLDESGGGLQMSRGGLSLVCKASGFDFSSYQMNWIRQAPGKGLEFVAAINKFGNSTGHGAAVKGRVTISRDNGQSTVRLQLNNLRAEDTAIYFCTKHAYGYCGSGTWCAAGEIDAWGHGTEVIVSS
VL: QAASTQPSSVSANPGETVEITCSGGGSYSYGWFQQKSPGSAPVTVIYYNNKRPSDIPSRFSGSKSGSTGTLTITGVQADDEAVYYCGSGDSTDTAVFGAGTTLTVLG
notes: Variable regions of chicken antibody #11 with the constant regions of mouse IgG1 (H chain and L chain constant regions); produced in CHO-K1; also called mouse-chicken anti-human CAPRIN-1 monoclonal antibody (#12)
For B1, the rate of increase in mean fluorescence intensity (MFI) over control [1] was over 35%, the rate of increase in mean fluorescence intensity (MFI) over control [2] was over 35% and the binding result [3] was “binds”.

Source: patent US20150185222A1 (TORAY INDUSTRIES, published 2015)
